Measured values taken from the RNAGym collection of RNA variant scans (doi:10.7554/elife.80360).

B1: HDV Ribozyme (parent)
chain: GGCCGGCAUGGUCCCAGCCUCCUCGCUGGCGCCGGCUGGGCAACAUUCCGAGGGGACCGUCCCCUCGGUAAUGGCGAAUGGGACCCA

Variants of: B1
Experiment: self-cleavage, relative activity (ratio to wild type); higher = more cleavage; co-transcriptional

Row | Variant | self-cleavage
1 | G1U A78G | 0.346
2 | G1A C36U | 0.244
3 | G1C U60A | 0.237
4 | G1U G6A | 0.41
5 | G1U C13G | 0.369
6 | G2C A8G | 0.0554
7 | G1U G17C | 0.341
8 | G2C C62A | 0.0462
9 | G2A C66U | 0.192
10 | G2A C84A | 0.0519
11 | G2A C84U | 0.119
12 | G1C C15U | 0.0831
13 | G2A G5U | 0.0453
14 | G2A C24G | 0.0378
15 | G1A C14G | 0.0665
16 | G2A A43C | 0.0665
17 | G1U C14G | 0.397
18 | G1U C14A | 0.222
19 | G1U A70U | 0.381
20 | G1C U69C | 0.158
21 | G2C A45C | 0.0528
22 | G2C A45G | 0.107
23 | G1A U12C | 0
24 | G1A U12G | 0.554

Row | Variant | self-cleavage
25 | G2C A83C | 0.0302
26 | G2C A83G | 0.132
27 | G2A C44U | 0.0554
28 | G2C G40A | 0.0773
29 | G2C G40U | 0.0409
30 | G1A U20A | 0.0594
31 | G1A U20C | 0
32 | G1U C49A | 0.502
33 | G1A C3G | 0.227
34 | G1A C3A | 0.0627
35 | G2A C57U | 0.203
36 | G1C G11A | 0.0652
37 | G1C G11C | 0.131
38 | G1C A71U | 0
39 | G2A C41A | 0.168
40 | G1C U12A | 0
41 | G1C U12G | 0.145
42 | G2C G11U | 0.0519
43 | G1A G6A | 0.437
44 | G2C C66A | 0.0913
45 | G2C A16C | 0.0361
46 | G1U C22G | 0.214
47 | G1U C22U | 0.356
48 | G2C C33A | 0.0528

Row | Variant | self-cleavage
49 | G2C C57G | 0.0228
50 | G1U G5A | 0.445
51 | G2C A42G | 0.13
52 | G2A U69A | 0.22
53 | G1U C84G | 0.297
54 | G1A C57U | 0
55 | G2A G34C | 0.0489
56 | G1A C44G | 0.138
57 | G1A C44U | 0.0898
58 | G1A G54A | 0.172
59 | G1A G54C | 0.364
60 | G1A G54U | 0.0475
61 | G2A C62U | 0.0886
62 | G2C G67U | 0.026
63 | G2C U47G | 0.0923
64 | G2A C21G | 0.0528
65 | G2A C58A | 0.234
66 | G2A C58U | 0.113
67 | G1C U20C | 0.0723
68 | G1C U20G | 0
69 | G1A A70G | 0.214
70 | G1U A71U | 0.424
71 | G1U A71G | 0.429
72 | G1U G76A | 0.62

Row | Variant | self-cleavage
73 | G2C G39C | 0
74 | G2C G39A | 0.121
75 | G2A G73U | 0.0443
76 | G1C G5A | 0.0536
77 | G1A A87C | 0.121
78 | G1A A87U | 0.157
79 | G1U C26U | 0.222
80 | G1C G68C | 0.0978
81 | G1A U27G | 0
82 | G1A G55U | 0.309
83 | G1C G34A | 0.0405
84 | G2C U9G | 0.0723
85 | G1A A78C | 0.0627
86 | G1C C18G | 0
87 | G1C C32G | 0
88 | G2A U9A | 0.0773
89 | G2C C84U | 0.0181
90 | G1U C30A | 0.426
91 | G1A C41G | 0
92 | G1U G73A | 0.237
93 | G1U C61G | 0.326
94 | G1U C61A | 0.326
95 | G2A U46C | 0.109
96 | G2C U27A | 0

Row | Variant | self-cleavage
97 | G2C C19U | 0.0665
98 | G1C C58U | 0.0923
99 | G1C A43G | 0
100 | G2A U20A | 0.0361
101 | G2A U20G | 0
102 | G1U G40C | 0.491
103 | G2C C3G | 0
104 | G1C C4A | 0
105 | G1A C63U | 0.147
106 | G2A G6A | 0.0563
107 | G1C U27C | 0
108 | G2A A8C | 0.106
109 | G2A A8U | 0.0432
110 | G1U G67C | 0.305
111 | G1A G52U | 0.162
112 | G1A G52C | 0.237
113 | G1A G53A | 0.0449
114 | G1A A83C | 0.138
115 | G2C C7A | 0.0268
116 | G2C C7G | 0.0692
117 | G1U A42U | 0.332
118 | G1A U9C | 0.369
119 | G1A U9G | 0.302
120 | G1A U9A | 0.138

Row | Variant | self-cleavage
121 | G1C U46A | 0.138
122 | G1C U46G | 0.119
123 | G1U G10C | 0.292
124 | G1U U65C | 0.399
125 | G1A G17C | 0.107
126 | G1C G54A | 0.131
127 | G1C A78C | 0
128 | G2C G82A | 0.0462
129 | G2A G52C | 0.112
130 | G2A G52A | 0.143
131 | G1A G2C | 0.0773
132 | G2A G31C | 0.0354
133 | G1C G40C | 0.0475
134 | G2C C26U | 0.124
135 | G2A C19A | 0.0292
136 | G1A G73A | 0.128
137 | G2C U23C | 0
138 | G2A U65G | 0.223
139 | G2A U65C | 0.117
140 | G1U G31A | 0.364
141 | G1U G54C | 0.361
142 | G1U G54A | 0.277
143 | G1C U47G | 0.128
144 | G2C U20C | 0.0536

Row | Variant | self-cleavage
145 | G1U A56C | 0.494
146 | G1U A51C | 0.231
147 | G1U A51G | 0.514
148 | G1C C64U | 0.155
149 | G1C C84G | 0
150 | G1U C58G | 0.318
151 | G1A C7A | 0.191
152 | G1C C22U | 0.148
153 | G2A U27A | 0.0997
154 | G2A U27G | 0
155 | G1U U60C | 0.0811
156 | G1C A16G | 0.196
157 | G1A C18A | 0.113
158 | G2A G39A | 0.0171
159 | G1A C21G | 0.0489
160 | G2A U47C | 0.0292
161 | G2A U47G | 0.374
162 | G2C G55C | 0.0656
163 | G2C G55U | 0.0346
164 | G1C G29U | 0.142
165 | G1C G29A | 0.0536
166 | G2A C63G | 0.0804
167 | G2A C63U | 0.162
